Source: article PMC3288308
Read-outs that look alike come from different tables or passages of the source.

Legend:
[1] = biological target: Treponema pallidum adhesin protein fragment rTp0483 (recombinant C-terminal portion of Tp0483) (Treponema pallidum); assay: SPR
[2] = biological target: Treponema pallidum adhesin protein fragment rTp0483 (recombinant C-terminal portion of Tp0483) (Treponema pallidum); assay: quartz crystal microbalance
[3] = biological target: Treponema pallidum adhesin protein fragment rTp0483 (recombinant C-terminal portion of Tp0483) (Treponema pallidum); assay: quartz crystal microbalance; remark: listed apart in the source
[4] = biological target: Treponema pallidum adhesin protein fragment rTp0483 (recombinant C-terminal portion of Tp0483) (Treponema pallidum); assay: SPR; remark: listed apart in the source
[5] = biological target: Treponema pallidum adhesin protein fragment rTp0483 (recombinant C-terminal portion of Tp0483) (Treponema pallidum); assay: quartz crystal microbalance; remark: listed apart in the source
[6] = biological target: Treponema pallidum adhesin protein fragment rTp0483 (recombinant C-terminal portion of Tp0483) (Treponema pallidum); assay: SPR; remark: listed apart in the source
[7] = biological target: Treponema pallidum adhesin protein fragment rTp0483 (recombinant C-terminal portion of Tp0483) (Treponema pallidum); assay: SPR; remark: listed apart in the source
[8] = biological target: Treponema pallidum adhesin protein fragment rTp0483 (recombinant C-terminal portion of Tp0483) (Treponema pallidum); assay: quartz crystal microbalance; remark: listed apart in the source
[9] = biological target: Human plasma fibronectin (human); assay: SPR

Sequence of Treponema pallidum adhesin protein fragment rTp0483 (recombinant C-terminal portion of Tp0483) (Treponema pallidum) (O83496 22-374): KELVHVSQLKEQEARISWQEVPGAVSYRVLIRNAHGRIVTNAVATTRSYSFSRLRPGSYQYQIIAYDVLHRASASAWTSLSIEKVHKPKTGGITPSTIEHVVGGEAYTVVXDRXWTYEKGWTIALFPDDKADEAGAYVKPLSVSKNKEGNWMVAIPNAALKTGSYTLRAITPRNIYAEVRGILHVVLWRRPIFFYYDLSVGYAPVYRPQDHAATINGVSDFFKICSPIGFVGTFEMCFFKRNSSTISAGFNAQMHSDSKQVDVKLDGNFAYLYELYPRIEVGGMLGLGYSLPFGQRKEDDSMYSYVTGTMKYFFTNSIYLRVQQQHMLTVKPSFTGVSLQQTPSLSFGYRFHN

## Human plasma fibronectin (natural protein)
[1]
  KA1 (bivalent analyte model, reaction 1): 1.03e+09 M⁻¹
  KA2 (bivalent analyte model, reaction 2): 403 1/RU
  surface mass density of FN bound (SPR) in the presence of anti-Tp0483#1: 373 pg/mm^2
  surface mass density of FN bound (SPR) in the presence of anti-Tp0483#2: 270 pg/mm^2
  surface mass density of FN bound (SPR), FN alone: 282 pg/mm^2
  surface mass density of FN bound (SPR), FN preincubated with 20 µg/mL anti-RGD: 91 pg/mm^2
  surface mass density of FN bound (SPR), FN preincubated with 50 µg/mL anti-RGD: 47 pg/mm^2
  surface mass density of FN bound (SPR), no antibody: 846 pg/mm^2
[2]
  surface mass density of FN bound (QCM): 1380 pg/mm^2
[3]
  surface mass density of FN bound (QCM): 363 pg/mm^2
[4]
  KA2 (bivalent analyte model, reaction 2): 0.0225 1/RU
  KD1 (inverse of KA1, reaction 1 of the bivalent analyte model): 0.65 nM
[5]
  surface mass density of FN bound (QCM): 3.5 pg/mm^2
[6]
  KA2 (bivalent analyte model, reaction 2): 0.0403 1/RU
  KD1 (inverse of KA1, reaction 1 of the bivalent analyte model): 0.97 nM
[7]
  KA1 (bivalent analyte model, reaction 1): 1.53e+09 M⁻¹
  KA2 (bivalent analyte model, reaction 2): 225 1/RU
[8]
  surface mass density of FN bound (QCM): 60 pg/mm^2

## Peptide D2, residues 316-333 of the complete Tp0483 sequence
[9]
  % FN binding to rTp0483 with the peptide, of FN alone: 88%

## Type A gelatin
[9]
  surface mass density of gelatin bound (SPR) on FN adsorbed on the SAM: 940 pg/mm^2
  surface mass density of gelatin bound (SPR) on rTp0483+FN: 211 pg/mm^2
